Source: the supplement of paper PMC7125110
± gives the standard error. Fewer inactive variants are shown than the library holds.

B1: glmS ribozyme (parent)
chain: AUAAAAGCGCCAGAACUACAGAAAUGUAGUUGACGAGGAGGAGGUUUAUCGAAUUUUCGGCGGAUGCCUCCAAA

Variants of: B1
Test: self-cleavage kobs at 640 uM GlcN6P; higher = faster cleavage; RNA array
Conditions: with glucosamine-6-phosphate
Summary of the method: (§1)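 Tiles of sequenced MiSeq chips were imaged over ~14 h at 37 °C. On them, barcoded ribozyme variants had been transcribed in situ by E. coli RNA polymerase and were tracked via a hybridised Cy3 probe while glucosamine-6-phosphate (40 μM to 10 mM) in HEPES/KCl/Mg(OAc)2 buffer flowed in. Per-tile medians, normalised to baseline and to non-cleaving reference variants, were fit to one- or two-exponential decays for kobs, and weighted Michaelis–Menten fits gave kcat and KM.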

G7C A42U A53U C67G and G7C G29C C67G cannot be ordered by “self-cleavage kobs at 640 uM GlcN6P” value: < 1e-05 s⁻¹ for the first, < 1e-05 s⁻¹ for the second.

First: G32U A36U G44U A48G
Second: U2C U31C
The “self-cleavage kobs at 640 uM GlcN6P” value of the first is lower: < 1e-05 s⁻¹ for the first, 0.000805 ± 0.00025 s⁻¹ for the second.

C34A G35A U65G and A6U C8A C50U cannot be ordered by “self-cleavage kobs at 640 uM GlcN6P” value: < 1e-05 s⁻¹ for the first, < 1e-05 s⁻¹ for the second.

G7U U30C U45A C71G and A33C G35A G44U C70U cannot be ordered by “self-cleavage kobs at 640 uM GlcN6P” value: < 1e-05 s⁻¹ for the first, < 1e-05 s⁻¹ for the second.

U57G A64U U69G and A14G U31G C67G are within error of each other in “self-cleavage kobs at 640 uM GlcN6P” value: 0.000149 ± 5.9e-05 s⁻¹ for the first, 6.87e-05 ± 2.7e-05 s⁻¹ for the second.

First: C8G G66C
Second: C58A C70A C71A
The “self-cleavage kobs at 640 uM GlcN6P” value of the first is lower: < 1e-05 s⁻¹ for the first, 8.13e-05 ± 2.5e-05 s⁻¹ for the second.

A39U A48G G60C and G38C G60C U65G cannot be ordered by “self-cleavage kobs at 640 uM GlcN6P” value: < 1e-05 s⁻¹ for the first, < 1e-05 s⁻¹ for the second.

C11G C16A G43U and G7U C10U C16A U30G A48C cannot be ordered by “self-cleavage kobs at 640 uM GlcN6P” value: < 1e-05 s⁻¹ for the first, < 1e-05 s⁻¹ for the second.

First: C16U A53U G66C
Second: C11A C16G U57A C58G A64U
The “self-cleavage kobs at 640 uM GlcN6P” value of the first is higher: 9.89e-05 ± 2.1e-05 s⁻¹ for the first, < 1e-05 s⁻¹ for the second.

First: C50G A64U C70U
Second: C10G G66U C68G C71A
The “self-cleavage kobs at 640 uM GlcN6P” value of the first is 2-fold higher: 0.000173 ± 5.1e-05 s⁻¹ for the first, 8.79e-05 ± 3.1e-05 s⁻¹ for the second.

Compared with C50A C58U C67G, U54C G60C C67G is lower in “self-cleavage kobs at 640 uM GlcN6P” value: 8.03e-05 ± 3.9e-05 s⁻¹ for the first, < 1e-05 s⁻¹ for the second.

Going from A15U U31C A39C to C50U G59U U69A C70G, the “self-cleavage kobs at 640 uM GlcN6P” value rises from 4.66e-05 ± 1.3e-05 s⁻¹ to 0.000556 ± 0.00018 s⁻¹ (12-fold).

Compared with U30C G35U C68U, A14C U31G G32A C70G is higher in “self-cleavage kobs at 640 uM GlcN6P” value: < 1e-05 s⁻¹ for the first, 6.55e-05 ± 1.4e-05 s⁻¹ for the second.

Compared with U45G U65G G66U U69C, A33C U45G U55C is lower in “self-cleavage kobs at 640 uM GlcN6P” value: 0.000332 ± 7.1e-05 s⁻¹ for the first, < 1e-05 s⁻¹ for the second.

G37U G44C U47C G63A and G43A C50A cannot be ordered by “self-cleavage kobs at 640 uM GlcN6P” value: < 1e-05 s⁻¹ for the first, < 1e-05 s⁻¹ for the second.

Compared with G9U A15G U55A, A52G U56G C67A U69C is higher in “self-cleavage kobs at 640 uM GlcN6P” value: < 1e-05 s⁻¹ for the first, 9.46e-05 ± 1.8e-05 s⁻¹ for the second.

Compared with G13C A14U G40U G51C A53G U54A, C11A G59U C70G C71U is higher in “self-cleavage kobs at 640 uM GlcN6P” value: < 1e-05 s⁻¹ for the first, 0.000202 ± 5.2e-05 s⁻¹ for the second.

C11U G13C G37C and C34U G38A A42G cannot be ordered by “self-cleavage kobs at 640 uM GlcN6P” value: < 1e-05 s⁻¹ for the first, < 1e-05 s⁻¹ for the second.

A6C G38U G62C C70U and C11A A33G G51A C71U cannot be ordered by “self-cleavage kobs at 640 uM GlcN6P” value: < 1e-05 s⁻¹ for the first, < 1e-05 s⁻¹ for the second.

Compared with C10A A15C U45C, C34G C58U C68G is higher in “self-cleavage kobs at 640 uM GlcN6P” value: < 1e-05 s⁻¹ for the first, 9.4e-05 ± 2.9e-05 s⁻¹ for the second.

A14C U45A U56C and U57C C67U C68A are within error of each other in “self-cleavage kobs at 640 uM GlcN6P” value: 8.23e-05 ± 3.9e-05 s⁻¹ for the first, 8.67e-05 ± 4e-05 s⁻¹ for the second.

Going from A14U A36U U56G C67G to C8G C11U A36U, the “self-cleavage kobs at 640 uM GlcN6P” value falls from 0.000671 ± 0.0003 s⁻¹ to < 1e-05 s⁻¹.

C8U G44U G60U and C16A U30G G35A U69C cannot be ordered by “self-cleavage kobs at 640 uM GlcN6P” value: < 1e-05 s⁻¹ for the first, < 1e-05 s⁻¹ for the second.

G43U C50G C70G and G7U G35C A39U U65C cannot be ordered by “self-cleavage kobs at 640 uM GlcN6P” value: < 1e-05 s⁻¹ for the first, < 1e-05 s⁻¹ for the second.

Going from G32C C67G U69G to C50G U54C G60C C61G, the “self-cleavage kobs at 640 uM GlcN6P” value rises from < 1e-05 s⁻¹ to 0.000234 ± 5.5e-05 s⁻¹.

First: U57A G62A
Second: A42G C68G
The “self-cleavage kobs at 640 uM GlcN6P” value of the first is lower: < 1e-05 s⁻¹ for the first, 7.72e-05 ± 2.8e-05 s⁻¹ for the second.

Compared with A12C G32U, U31C G38A C71U is lower in “self-cleavage kobs at 640 uM GlcN6P” value: 5.84e-05 ± 2.3e-05 s⁻¹ for the first, < 1e-05 s⁻¹ for the second.

Going from A14U U31A G32U C67U to U31C G37A C70G, the “self-cleavage kobs at 640 uM GlcN6P” value falls from 5.86e-05 ± 2.4e-05 s⁻¹ to < 1e-05 s⁻¹.

Going from U47A A48U C70U to U30A G32A G35C U45C, the “self-cleavage kobs at 640 uM GlcN6P” value falls from 0.000162 ± 5.1e-05 s⁻¹ to < 1e-05 s⁻¹.

A42C G60C C70U and A14C U30A G63A C67A cannot be ordered by “self-cleavage kobs at 640 uM GlcN6P” value: < 1e-05 s⁻¹ for the first, < 1e-05 s⁻¹ for the second.

Variants of: B1
Test: self-cleavage kobs at 2500 uM GlcN6P; higher = faster cleavage; RNA array
Conditions: with glucosamine-6-phosphate
Summary of the method: as §1

G7C G29C C67G and G32U A36U G44U A48G cannot be ordered by “self-cleavage kobs at 2500 uM GlcN6P” value: < 1e-05 s⁻¹ for the first, < 1e-05 s⁻¹ for the second.

U57G A64U U69G and A14G U31G C67G are within error of each other in “self-cleavage kobs at 2500 uM GlcN6P” value: 6.09e-05 ± 1.5e-05 s⁻¹ for the first, 5.23e-05 ± 1.9e-05 s⁻¹ for the second.

Compared with C8G G66C, C58A C70A C71A is higher in “self-cleavage kobs at 2500 uM GlcN6P” value: < 1e-05 s⁻¹ for the first, 0.000492 ± 0.00012 s⁻¹ for the second.

Compared with A39U A48G G60C, C16U A53U G66C is higher in “self-cleavage kobs at 2500 uM GlcN6P” value: < 1e-05 s⁻¹ for the first, 0.000105 ± 2.8e-05 s⁻¹ for the second.

First: C11A C16G U57A C58G A64U
Second: C50G A64U C70U
The “self-cleavage kobs at 2500 uM GlcN6P” value of the first is lower: < 1e-05 s⁻¹ for the first, 0.000192 ± 4.3e-05 s⁻¹ for the second.

A15U U31C A39C and C50U G59U U69A C70G are within error of each other in “self-cleavage kobs at 2500 uM GlcN6P” value: 0.000126 ± 2.4e-05 s⁻¹ for the first, 7.32e-05 ± 2.9e-05 s⁻¹ for the second.

First: U30C G35U C68U
Second: A14C U31G G32A C70G
The “self-cleavage kobs at 2500 uM GlcN6P” value of the first is lower: < 1e-05 s⁻¹ for the first, 8.05e-05 ± 2e-05 s⁻¹ for the second.

First: U45G U65G G66U U69C
Second: G37U G44C U47C G63A
The “self-cleavage kobs at 2500 uM GlcN6P” value of the first is higher: 0.00052 ± 0.00017 s⁻¹ for the first, < 1e-05 s⁻¹ for the second.

Going from A52G U56G C67A U69C to C11A G59U C70G C71U, the “self-cleavage kobs at 2500 uM GlcN6P” value rises from 0.000192 ± 5.3e-05 s⁻¹ to 0.00032 ± 6.5e-05 s⁻¹ (1.7-fold).

Going from C11U G13C G37C to A14C U45A U56C, the “self-cleavage kobs at 2500 uM GlcN6P” value rises from < 1e-05 s⁻¹ to 0.000421 ± 0.00012 s⁻¹.

C8G C11U A36U and C16A U30G G35A U69C cannot be ordered by “self-cleavage kobs at 2500 uM GlcN6P” value: < 1e-05 s⁻¹ for the first, < 1e-05 s⁻¹ for the second.

First: C50G U54C G60C C61G
Second: A42G C68G
The “self-cleavage kobs at 2500 uM GlcN6P” value of the first is 3.7-fold lower: 8.41e-05 ± 2.8e-05 s⁻¹ for the first, 0.000308 ± 7.3e-05 s⁻¹ for the second.

Compared with A12C G32U, A14U U31A G32U C67U is 3.1-fold higher in “self-cleavage kobs at 2500 uM GlcN6P” value: 8.84e-05 ± 1.6e-05 s⁻¹ for the first, 0.000276 ± 7.5e-05 s⁻¹ for the second.

First: U47A A48U C70U
Second: U30A G32A G35C U45C
The “self-cleavage kobs at 2500 uM GlcN6P” value of the first is higher: 0.000141 ± 3.3e-05 s⁻¹ for the first, < 1e-05 s⁻¹ for the second.

In the case of A42C G60C C70U, the “self-cleavage kobs at 2500 uM GlcN6P” value is reported as < 1e-05 s⁻¹.

Variants of: B1
Test: self-cleavage kobs at 10000 uM GlcN6P; higher = faster cleavage; RNA array
Conditions: with glucosamine-6-phosphate
Summary of the method: as §1

Compared with C16U A53U G66C, U45G U65G G66U U69C is 9.6-fold higher in “self-cleavage kobs at 10000 uM GlcN6P” value: 0.000199 ± 5.3e-05 s⁻¹ for the first, 0.00192 ± 0.00028 s⁻¹ for the second.

Compared with A52G U56G C67A U69C, C11A G59U C70G C71U is 2-fold lower in “self-cleavage kobs at 10000 uM GlcN6P” value: 0.000295 ± 8.2e-05 s⁻¹ for the first, 0.00015 ± 4.4e-05 s⁻¹ for the second.

C11U G13C G37C and G32C C67G U69G cannot be ordered by “self-cleavage kobs at 10000 uM GlcN6P” value: < 1e-05 s⁻¹ for the first, < 1e-05 s⁻¹ for the second.

Going from A42G C68G to A12C G32U, the “self-cleavage kobs at 10000 uM GlcN6P” value rises from 0.000128 ± 2.2e-05 s⁻¹ to 0.000265 ± 5e-05 s⁻¹ (2.1-fold).

Going from U47A A48U C70U to A42C G60C C70U, the “self-cleavage kobs at 10000 uM GlcN6P” value falls from 0.000573 ± 0.00021 s⁻¹ to < 1e-05 s⁻¹.
